Test results taken from the nanobody polyreactivity screen of Harvey et al. (2022).

Assay: yeast display, Sf9 membrane polyspecificity reagent, FACS + sequencing; frameworks hold sequencing errors
Procedure, shortened: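 Genes from sorted yeast were amplified by colony PCR, read by MiSeq 2 × 250 sequencing and filtered on CDR length. These cells carried a synthetic nanobody library in Saccharomyces cerevisiae BJ5465 and were sorted by FACS into low and high (top ~1%) gates on anti-HA and streptavidin fluorescence. Polyreactivity is labelled according to the gate of origin.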

| Sequence | polyreactivity (PSR sort gate) |
| --- | --- |
| QVQLVESGGGLVQAGGSLRLSCAASGRTFFDYVMGWYRQAPGKERELVAAISTSGTSTYYADSVKGRFTISRDNAKNTVYLHMNSLKPEDTAVYYCAAGNYLYSYGYGYWGQGTQVTVSS | high polyreactivity |
| QVQLVESGGGLVQAGGSLRLSCAASGRTFFENAKGWYRQAPGKEREFVAAISYNGGSTYYADSVKGRFTISRDNAKNTVYLQMNSLKPEDTAVYYCAADPNYGYDYWGQGTQVTVSS | low polyreactivity |
| QVQLVESGGGLVQAGGSLRLSCAASGRTFFFNAMGWYRQAPGKERELVARITWSGGSTYYADSVKGRFTISRDNAKNTVYLQMNSLKPEDTAVYYCNTRRFPYDGIEHDYWGQGTQVTVSS | low polyreactivity |
| QVQLVESGGGLVQAGGSLRLSCAASGRTFFGNAKGWYRQAPGKERELVAAISWRGGSTYYADSVKGRFTISRDNAKKTVYLQMNSLKPEDTAVYYCATGRYGYGYWGQGTQVTVSS | high polyreactivity |
| QVQLVESGGGLVQAGGSLRLSCAASGRTFFGNAMGWYRQAPGKERELVAVISQGGGSTYYADSVKGRFTISRDNAKNTVYLQMNSLKPEDTAVYYCAKRYPHFGSGQLGGTYNYWGQGTQVTVSS | low polyreactivity |
| QVQLVESGGGLVQAGGSLRLSCAASGRTFFGYAMGWCRQARGKEREFVAAISGSGGSTYYADSVKGRFTISRDYAKNTVYFKMNSLKPEDTAVYYCNAEYWGEYYYFGQGTQVTVSS | low polyreactivity |
| QVQLVESGGGLVQAGGSLRLSCAASGRTFFGYAMGWYRQAPGKERELVAAITTSGGSTYYADSVKGRFTISRDNAKNTVYLQMNSLKPEDTAVYYCAARAYYGYYYWGQGTQVTVSS | low polyreactivity |
| QVQLVESGGGLVQAGGSLRLSCAASGRTFFIYAMGWYRQAPGKERELVAAISNGGSTNYADSVKGRFTISRDYAKNTVYLQMISLKPEDTAVYYCAAQYIGNLRGVFHYEFDWGQGTQVTVSS | high polyreactivity |
| QVQLVESGGGLVQAGGSLRLSCAASGRTFFLYAMGWYRQAPGKERELVAAITDGGSITYYADSVKGRFTISRDNAKNTVYLQMNSLKPEDTAVYYCAAEYWHVYDGDYWGYDYWGQGTQVTVSS | high polyreactivity |
| QVQLVESGGGLVQAGGSLRLSCAASGRTFFPYAMGWYRQAPAKEREFVAAITKTDDSTYYADSVKGRFTISRDNAKNTVYLQMNSLKPEDTAVYYCNAGDTQIRFYYWGQGTQVTVSS | low polyreactivity |
| QVQLVESGGGLVQAGGSLRLSCAASGRTFFPYAMGWYRQAPGKEREFVAAITKTDDSTYYADSVKGRFTISRDTSKNTVYLQMNSLKPEDTAVYYCNAGDTQMRFYYGGQGTQVTVSS | low polyreactivity |
| QVQLVESGGGLVQAGGSLRLSCAASGRTFFPYAMGWYRQAPGKERELVAAISFRGGRTYYADSVKGRFTISRDNAKNTVYLQMNSLKPEDTAVYYCNKLGTRVYEMDYWGQGTQVTVSS | high polyreactivity |
| QVQLVESGGGLVQAGGSLRLSCAASGRTFFQYAMGWYRQPPGKARELVAAIRWSDSTYYADSVKGRFTISRDNAKNTVYLQMNSLKPADTAVYYCAAPRVSQYSTKKYDYWGQGTQVTVSS | low polyreactivity |
| QVQLVESGGGLVQAGGSLRLSCAASGRTFFRYAMGWYRQAPGKERELVAAISSRGGSTYYADSVKGRFTISRDNAKNTVYLQMNSLKPEDTAVYYCNAAAFINFILYDYWGQGTQVTVSS | high polyreactivity |
| QVQLVESGGGLVQAGGSLRLSCAASGRTFFRYAMGWYRQAPGKERELVADISKGGGSTYYADSVKGRFTISRDNAKNTVYLQMNSLKPEDTAVYYCAADQYYERDNFGAERYYWGQGTQVTVSS | high polyreactivity |
| QVQLVESGGGLVQAGGSLRLSCAASGRTFFSFNAMGWYRQAPGKERELVAAIDGDGGITYYADSVKGRFTISRDNAKNTVYLQMNSLKPEDTAVYYCAAETLFSYAGEDDYWGQGTQVTVSS | low polyreactivity |
| QVQLVESGGGLVQAGGSLRLSCAASGRTFFSYTMGWSRQAPGKERELVAAISDSDGRTYYADSVKGRFTISRDNAKNTVYLQMNSLKPEDTAVYYCAAVPDKDWSRVRRYLFEDIYWGQGTQVTVSS | low polyreactivity |
| QVQLVESGGGLVQAGGSLRLSCAASGRTFFTNAMGWYRQAPGKERELVASINSGGNTTYADSVKGRFTISRDNAKNTVYIQMNSLKPEDTAVYYCAAVRSAQRWRRYYYWGQGTQVTVSS | low polyreactivity |
| QVQLVESGGGLVQAGGSLRLSCAASGRTFFTNTMGWYRQAPGKERELVAAITRSGASTYYADSVKGRFTISRDNAKNTVYLQMNSLKPEDTAVYYCAAQRSKYSTVGKYGYWGQGTQVTVSS | high polyreactivity |
| QVQLVESGGGLVQAGGSLRLSCAASGRTFFTYAMGWYRQAPGKERELVASITSSGVSTYYADSVKGRFTISRDNAKNTVYLQINRLKPEDTAVYHCNTRYPYYWPIYGYWGQGTQVTVSS | high polyreactivity |
| QVQLVESGGGLVQAGGSLRLSCAASGRTFFWYVMGWYRKAPGKERELVATISYGGITYYADSVKGRFTISRDNAKNTVYLQMNSLKPEDTALYYCAAKPSRSLYYYWGQGTQVTVSS | high polyreactivity |
| QVQLVESGGGLVQAGGSLRLSCAASGRTFFYNAMGWYRQAPGKERELVAAISYSGGSTYYADSVKGRFTISRDNAKNTVYLQMNSLKPEDTAVYYCAAYHYARYRTSAGNYYWGQGTQVTVSS | high polyreactivity |

| Sequence | polyreactivity (PSR sort gate) |
| --- | --- |
| QVQLVESGGGLVQAGGSLRLSCAASGRTFFYYAMGWYRQAPGKERELVAAISGRGGSTYYADSVKGRFTISRDNAKNTVYLQMNSLKPVDTAVYFCAAQSPFRRYTSPWYDYWGQGTQVTVSS | high polyreactivity |
| QVQLVESGGGLVQAGGSLRLSCAASGRTFGANAMGWYRQAPGKERELVATIRRGGSTYYADSVKGRFTISRDNAKNTVYLLMNSLKPEDTAVYYCATQYHSYAKEYDYWGQGTQVTVSS | low polyreactivity |
| QVQLVESGGGLVQAGGSLRLSCAASGRTFGAYTMGWYRQAPGKERELFAAINWSGGDTYYADSVKGRFTISRDNAKNTVYLQMNSLKPEDTAVYYCNADFGFGYVSLLYEYWGQGTQVTVSS | low polyreactivity |
| QVQLVESGGGLVQAGGSLRLSCAASGRTFGDYAMGWYRQAPGKERELVAAITIGGSTYYADSVKGRFTISRDNAKNTVYLQMNSLKPEDTAVYYCAATTYSIPSRYDSWGQGTQVTVSS | low polyreactivity |
| QVQLVESGGGLVQAGGSLRLSCAASGRTFGDYDMGWYRQAPGKERELVAAITSDGTTYYADSVKGRFTISRDNAKNTVYLQMNSLKPEDTAVYYCAADYWYVSWYDYWGQGTQVTVSS | low polyreactivity |
| QVQLVESGGGLVQAGGSLRLSCAASGRTFGEYAMGWYRQAPGKERELVADITNGSRTYYADSVKGRFTISRDNAKNTVYLQMNSLKPEDTAVYYCAADWWKEVDYWGQGTHVTVSS | low polyreactivity |
| QVQLVESGGGLVQAGGSLRLSCAASGRTFGFYAMGWYRQAPGKERELVAAISKRGGSTYYADSVKGRFTISRDNAKNTVYLQMNSLKPEDTAVYYCAAVGYYLVKFDYWGQGTQVTVSS | high polyreactivity |
| QVQLVESGGGLVQAGGSLRLSCAASGRTFGGNAMGWYRQAPGKERELVAAISARAGSTYYADSVKGRFTISRDNAKNTVYLQMNSLKPEDTAVYYCAARRYAYTGGYWGQGTQVTVSS | high polyreactivity |
| QVQLVESGGGLVQAGGSLRLSCAASGRTFGGNAMGWYRQAPGKERELVAAITWRGGSTYYADSVKGRFTISRDNAKNTVYLQMNSLKPEDTAVYYCNAVRTGKYVKYYRSIFDYWGQGTQVTVSS | high polyreactivity |
| QVQLVESGGGLVQAGGSLRLSCAASGRTFGGNAMGWYRQAPGKERELVAGINISGGSTNYADTVKGRFTISRDNAKNTVYLQMNSLKPEDTAVYYCNADTAVYAWDDDYWGQGTQVTVSS | low polyreactivity |
| QVQLVESGGGLVQAGGSLRLSCAASGRTFGGNAMGWYRQAPGKERELVATIRSSSSTNYADSVKGRFTISRDNAKNTVYLQMNSLKPEDTAVYYCARRSQRGIYSMYYWGQGSQVTVSS | low polyreactivity |
| QVQLVESGGGLVQAGGSLRLSCAASGRTFGGNAMGWYRQAPGKERELVAVIRSTGGSTYYADSVKGRFTISRDTAKNTVYVQMNSLKPEDTAVYYCAKGRGRNFGYWGQGTQVTVSS | high polyreactivity |
| QVQLVESGGGLVQAGGSLRLSCAASGRTFGGNAMGWYRQAPGKESELVAAISKSGGRTYYADSVKGRFTISRDNAKNTVYLQMNSLKPEDTAVYYCNKVLSVSQAGGFDYWGQGTQVTVSS | high polyreactivity |
| QVQLVESGGGLVQAGGSLRLSCAASGRTFGGYAMGWYRQAPGKERELDASITSGGSTYYADSVKGRFTISRDNAKNTVYLEMNSLKPEDTAVYYCAADTYFETSTRAIPSNAYWGQGTQVTVSS | low polyreactivity |
| QVQLVESGGGLVQAGGSLRLSCAASGRTFGGYAMGWYRQAPGKERELVAAITYSGGSTYYADSVKGRFTISRDNAKNTVYLQMNSLKPEDTAVYYCAAEGSSSYTYDYWGQGTQVTVSS | low polyreactivity |
| QVQLVESGGGLVQAGGSLRLSCAASGRTFGGYPMGWYRQAPGKERELVASINSGGSTYYADSVKGRFTISRDNAKNTVYLQMNSLKPEDTAVYYCAKRLGGRTLRKYGYWGQGTQVTVSS | high polyreactivity |
| QVQLVESGGGLVQAGGSLRLSCAASGRTFGIKAMGWYRQAHGKERELVAVISFGDGGTYYADSVKGRFTISRDNAKNTVYLQMNSLKPEDTAVYYCATDYQSTSVWGGHFVINPYDYWGQGTQVTLSS | low polyreactivity |
| QVQLVESGGGLVQAGGSLRLSCAASGRTFGINAMGWYRQAPGKERELVAVISFGDGGTYYADSVKGRFTISRDNAKNTVYLQMNSLKPEDTAVYYCAAAIWYIKLYFVRRTEHGYWGQGTQVTVSS | low polyreactivity |
| QVQLVESGGGLVQAGGSLRLSCAASGRTFGINAMGWYRQAPGKERELVAVISGSGGNTYYADSVKGRFTISRDNEKNTVYLQMNSLKPEDTAVYYCATRYEKFRYDYWGQGTQVTVSS | low polyreactivity |
| QVQLVESGGGLVQAGGSLRLSCAASGRTFGIYAMGWYRQAPGKERELVASITRSSGGTYYADSVKGRFTISRDNAKNTVYLQMNSLKPEDTAVYYCAARLQGRYKYGYWGQGTQVTVSS | high polyreactivity |
| QVQLVESGGGLVQAGGSLRLSCAASGRTFGKNAMGWYRQAPAKERELVAAISWGGGRTFYADSVKGRFTISRDNAKNTVYLQMNSLKPEDTAVYYCNAVQYPRRAKYDYWGQGTQVTVSS | low polyreactivity |
